Results on 17 molecules are retold here after patent US20170081400A1 (CEPHALON, published 2017).

The target in assay [1] is T1, human TL1A extracellular domain with N-terminal HIS and FLAG tag (human, UniProt O95150 72-251).
T1 construct: the whole entry is named
T1 sequence: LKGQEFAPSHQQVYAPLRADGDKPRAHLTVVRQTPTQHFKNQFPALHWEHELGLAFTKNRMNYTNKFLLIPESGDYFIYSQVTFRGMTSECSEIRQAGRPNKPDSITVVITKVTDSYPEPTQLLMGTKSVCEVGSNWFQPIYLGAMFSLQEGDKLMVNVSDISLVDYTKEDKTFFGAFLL
Briefly: SPR Run 5, Ab from supernatant captured on Protein A, TL1A 5 ug/mL, timepoint 44. The text has this: (§1) 1.5. Antibody expression and antigen binding as determined by SPR. Using a CM5 sensor chip (GE Healthcare) Protein A (Pierce) was coupled to the chip surface using an amine coupling kit (GE Healthcare). Protein A was coupled on flow cell 1 and 2 (or alternatively 3 and 4) using a BIACORE® T200. […] The amount of supernatant or purified protein (as well as the concentration) injected during the capture stage varied between runs and is specified in the header of the Tables 3-11. At the end of injection of the supernatant or purified antibody the change in response units was measured. This value was reported as Capture Level in Tables 3-11. […] The response units were measured prior to the end of the dissociation phase. […] The sensorgrams were double referenced (flow cell 2 is subtracted from flow cell 1 and a buffer blank). As there were a large number of antibody variants to screen, these were screened across different runs (Tables 3-11). […] A summary of the conditions used in each run is below:
(§2) 2.1. […] In some experiment the antibodies were purified using Protein A chromatography (See 1.4) and purified antibodies were used in BIACORE® (GE Healthcare) experiments.

Assay [2] has as its target T1, human TL1A extracellular domain with …. Description: SPR Run 5, Ab from supernatant captured on Protein A, TL1A 5 ug/mL, timepoint 220.
Text: as §1, §2

B1: 320-399 (antibody, human IgG1, name in Kabat numbering, V domains shown)
VH: QVQLVQSGAEVKKPGASVKVSCKASGQTFTSYDINWVRQAPGQGLEWMGWLNPNSGNTGYAQKFQGRVTMTADRSTSTAYMELSSLRSEDTAVYYCAREVPETAAFEYWGQGTLVTVSS
VL: QSVLTQPPSVSGAPGQRVTISCTSSSSDIGAGLGVHWYQQLPGTAPKLLIEGYYNRPSGVPDRFSGSKSGTSASLTITGLLPEDEGDYYCQSYDGTLSALFGGGTKLTVLG
notes: human IgG1, lambda
For B1, the “TL1A Binding Level (Early)” value in assay [1] was found to be 10 RU. Also, the “TL1A Binding Level (Late)” value in assay [2] was found to be 10 RU.

B2: 320-402 (antibody, human IgG1, name in Kabat numbering, V domains shown)
VH: QVQLVQSGAEVKKPGASVKVSCKASGLTFTSYDINWVRQAPGQGLEWMGWLNPNSGNTGYAQKFQGRVTMTADRSTSTAYMELSSLRSEDTAVYYCAREVPETAAFEYWGQGTLVTVSS
VL: QSVLTQPPSVSGAPGQRVTISCTSSSSDIGAGLGVHWYQQLPGTAPKLLIEGYYNRPSGVPDRFSGSKSGTSASLTITGLLPEDEGDYYCQSYDGTLSALFGGGTKLTVLG
notes: human IgG1, lambda
As for B2, in assay [1], the “TL1A Binding Level (Early)” value was 11 RU. Further, the “TL1A Binding Level (Late)” value in assay [2] was 10 RU.

B3: 320-406 (antibody, human IgG1, name in Kabat numbering, V domains shown)
VH: QVQLVQSGAEVKKPGASVKVSCKASGYQFTSYDINWVRQAPGQGLEWMGWLNPNSGNTGYAQKFQGRVTMTADRSTSTAYMELSSLRSEDTAVYYCAREVPETAAFEYWGQGTLVTVSS
VL: QSVLTQPPSVSGAPGQRVTISCTSSSSDIGAGLGVHWYQQLPGTAPKLLIEGYYNRPSGVPDRFSGSKSGTSASLTITGLLPEDEGDYYCQSYDGTLSALFGGGTKLTVLG
notes: human IgG1, lambda
With B3, the “TL1A Binding Level (Early)” value in assay [1] worked out at 8 RU. Further, the “TL1A Binding Level (Late)” value in assay [2] worked out at 7 RU.

B4: 320-404 (antibody, human IgG1, name in Kabat numbering, V domains shown)
VH: QVQLVQSGAEVKKPGASVKVSCKASGYAFTSYDINWVRQAPGQGLEWMGWLNPNSGNTGYAQKFQGRVTMTADRSTSTAYMELSSLRSEDTAVYYCAREVPETAAFEYWGQGTLVTVSS
VL: QSVLTQPPSVSGAPGQRVTISCTSSSSDIGAGLGVHWYQQLPGTAPKLLIEGYYNRPSGVPDRFSGSKSGTSASLTITGLLPEDEGDYYCQSYDGTLSALFGGGTKLTVLG
notes: human IgG1, lambda
With B4, the “TL1A Binding Level (Early)” value in assay [1] came to 11 RU. Moreover, in assay [2], the “TL1A Binding Level (Late)” value was found to be 10 RU.

B5: 320-410 (antibody, human IgG1, name in Kabat numbering, V domains shown)
VH: QVQLVQSGAEVKKPGASVKVSCKASGYLFTSYDINWVRQAPGQGLEWMGWLNPNSGNTGYAQKFQGRVTMTADRSTSTAYMELSSLRSEDTAVYYCAREVPETAAFEYWGQGTLVTVSS
VL: QSVLTQPPSVSGAPGQRVTISCTSSSSDIGAGLGVHWYQQLPGTAPKLLIEGYYNRPSGVPDRFSGSKSGTSASLTITGLLPEDEGDYYCQSYDGTLSALFGGGTKLTVLG
notes: human IgG1, lambda
Turning to B5, in assay [1], the “TL1A Binding Level (Early)” value worked out at 11 RU. Also, the “TL1A Binding Level (Late)” value in assay [2] was 10 RU.

B6: 320-401 (antibody, human IgG1, name in Kabat numbering, V domains shown)
VH: QVQLVQSGAEVKKPGASVKVSCKASGHTFTSYDINWVRQAPGQGLEWMGWLNPNSGNTGYAQKFQGRVTMTADRSTSTAYMELSSLRSEDTAVYYCAREVPETAAFEYWGQGTLVTVSS
VL: QSVLTQPPSVSGAPGQRVTISCTSSSSDIGAGLGVHWYQQLPGTAPKLLIEGYYNRPSGVPDRFSGSKSGTSASLTITGLLPEDEGDYYCQSYDGTLSALFGGGTKLTVLG
notes: human IgG1, lambda
With B6, the “TL1A Binding Level (Early)” value in assay [1] came out at 11 RU. Also, in assay [2], the “TL1A Binding Level (Late)” value came out at 10 RU.

B7: 320-411 (antibody, human IgG1, name in Kabat numbering, V domains shown)
VH: QVQLVQSGAEVKKPGASVKVSCKASGYWFTSYDINWVRQAPGQGLEWMGWLNPNSGNTGYAQKFQGRVTMTADRSTSTAYMELSSLRSEDTAVYYCAREVPETAAFEYWGQGTLVTVSS
VL: QSVLTQPPSVSGAPGQRVTISCTSSSSDIGAGLGVHWYQQLPGTAPKLLIEGYYNRPSGVPDRFSGSKSGTSASLTITGLLPEDEGDYYCQSYDGTLSALFGGGTKLTVLG
notes: human IgG1, lambda
Take B7: the “TL1A Binding Level (Early)” value in assay [1] is 10 RU. The “TL1A Binding Level (Late)” value in assay [2] came to 9 RU.

B8: 320-414 (antibody, human IgG1, name in Kabat numbering, V domains shown)
VH: QVQLVQSGAEVKKPGASVKVSCKASGYTSTSYDINWVRQAPGQGLEWMGWLNPNSGNTGYAQKFQGRVTMTADRSTSTAYMELSSLRSEDTAVYYCAREVPETAAFEYWGQGTLVTVSS
VL: QSVLTQPPSVSGAPGQRVTISCTSSSSDIGAGLGVHWYQQLPGTAPKLLIEGYYNRPSGVPDRFSGSKSGTSASLTITGLLPEDEGDYYCQSYDGTLSALFGGGTKLTVLG
notes: human IgG1, lambda
Take B8: the “TL1A Binding Level (Early)” value in assay [1] was determined as 7 RU. Also, the “TL1A Binding Level (Late)” value in assay [2] came to 7 RU.

B9: 320-413 (antibody, human IgG1, name in Kabat numbering, V domains shown)
VH: QVQLVQSGAEVKKPGASVKVSCKASGYTATSYDINWVRQAPGQGLEWMGWLNPNSGNTGYAQKFQGRVTMTADRSTSTAYMELSSLRSEDTAVYYCAREVPETAAFEYWGQGTLVTVSS
VL: QSVLTQPPSVSGAPGQRVTISCTSSSSDIGAGLGVHWYQQLPGTAPKLLIEGYYNRPSGVPDRFSGSKSGTSASLTITGLLPEDEGDYYCQSYDGTLSALFGGGTKLTVLG
notes: human IgG1, lambda
As for B9, the “TL1A Binding Level (Early)” value in assay [1] was 9 RU. In assay [2], the “TL1A Binding Level (Late)” value was determined as 8 RU.

B10: 320-403 (antibody, human IgG1, name in Kabat numbering, V domains shown)
VH: QVQLVQSGAEVKKPGASVKVSCKASGWTFTSYDINWVRQAPGQGLEWMGWLNPNSGNTGYAQKFQGRVTMTADRSTSTAYMELSSLRSEDTAVYYCAREVPETAAFEYWGQGTLVTVSS
VL: QSVLTQPPSVSGAPGQRVTISCTSSSSDIGAGLGVHWYQQLPGTAPKLLIEGYYNRPSGVPDRFSGSKSGTSASLTITGLLPEDEGDYYCQSYDGTLSALFGGGTKLTVLG
notes: human IgG1, lambda
Take B10: the “TL1A Binding Level (Early)” value in assay [1] turned out to be 11 RU. In assay [2], the “TL1A Binding Level (Late)” value was 10 RU.

B11: 320-415 (antibody, human IgG1, name in Kabat numbering, V domains shown)
VH: QVQLVQSGAEVKKPGASVKVSCKASGYTQTSYDINWVRQAPGQGLEWMGWLNPNSGNTGYAQKFQGRVTMTADRSTSTAYMELSSLRSEDTAVYYCAREVPETAAFEYWGQGTLVTVSS
VL: QSVLTQPPSVSGAPGQRVTISCTSSSSDIGAGLGVHWYQQLPGTAPKLLIEGYYNRPSGVPDRFSGSKSGTSASLTITGLLPEDEGDYYCQSYDGTLSALFGGGTKLTVLG
notes: human IgG1, lambda
For the molecule B11, the “TL1A Binding Level (Early)” value in assay [1] worked out at 5 RU. In addition, in assay [2], the “TL1A Binding Level (Late)” value came to 4 RU.

B12: 320-400 (antibody, human IgG1, name in Kabat numbering, V domains shown)
VH: QVQLVQSGAEVKKPGASVKVSCKASGDTFTSYDINWVRQAPGQGLEWMGWLNPNSGNTGYAQKFQGRVTMTADRSTSTAYMELSSLRSEDTAVYYCAREVPETAAFEYWGQGTLVTVSS
VL: QSVLTQPPSVSGAPGQRVTISCTSSSSDIGAGLGVHWYQQLPGTAPKLLIEGYYNRPSGVPDRFSGSKSGTSASLTITGLLPEDEGDYYCQSYDGTLSALFGGGTKLTVLG
notes: human IgG1, lambda
On to B12, for which, in assay [1], the “TL1A Binding Level (Early)” value was 11 RU. Further, the “TL1A Binding Level (Late)” value in assay [2] amounted to 11 RU.

B13: 320-408 (antibody, human IgG1, name in Kabat numbering, V domains shown)
VH: QVQLVQSGAEVKKPGASVKVSCKASGYHFTSYDINWVRQAPGQGLEWMGWLNPNSGNTGYAQKFQGRVTMTADRSTSTAYMELSSLRSEDTAVYYCAREVPETAAFEYWGQGTLVTVSS
VL: QSVLTQPPSVSGAPGQRVTISCTSSSSDIGAGLGVHWYQQLPGTAPKLLIEGYYNRPSGVPDRFSGSKSGTSASLTITGLLPEDEGDYYCQSYDGTLSALFGGGTKLTVLG
notes: human IgG1, lambda
Consider B13, for which the “TL1A Binding Level (Early)” value in assay [1] is 13 RU. For the same molecule, the “TL1A Binding Level (Late)” value in assay [2] worked out at 12 RU.

B14: 320-407 (antibody, human IgG1, name in Kabat numbering, V domains shown)
VH: QVQLVQSGAEVKKPGASVKVSCKASGYDFTSYDINWVRQAPGQGLEWMGWLNPNSGNTGYAQKFQGRVTMTADRSTSTAYMELSSLRSEDTAVYYCAREVPETAAFEYWGQGTLVTVSS
VL: QSVLTQPPSVSGAPGQRVTISCTSSSSDIGAGLGVHWYQQLPGTAPKLLIEGYYNRPSGVPDRFSGSKSGTSASLTITGLLPEDEGDYYCQSYDGTLSALFGGGTKLTVLG
notes: human IgG1, lambda
In the case of B14, in assay [1], the “TL1A Binding Level (Early)” value turned out to be 12 RU. Moreover, the “TL1A Binding Level (Late)” value in assay [2] is 11 RU.

B15: 320-405 (antibody, human IgG1, name in Kabat numbering, V domains shown)
VH: QVQLVQSGAEVKKPGASVKVSCKASGYSFTSYDINWVRQAPGQGLEWMGWLNPNSGNTGYAQKFQGRVTMTADRSTSTAYMELSSLRSEDTAVYYCAREVPETAAFEYWGQGTLVTVSS
VL: QSVLTQPPSVSGAPGQRVTISCTSSSSDIGAGLGVHWYQQLPGTAPKLLIEGYYNRPSGVPDRFSGSKSGTSASLTITGLLPEDEGDYYCQSYDGTLSALFGGGTKLTVLG
notes: human IgG1, lambda
Consider B15, for which the “TL1A Binding Level (Early)” value in assay [1] amounted to 10 RU. Besides, the “TL1A Binding Level (Late)” value in assay [2] stood at 9 RU.

B16: 320-412 (antibody, human IgG1, name in Kabat numbering, V domains shown)
VH: QVQLVQSGAEVKKPGASVKVSCKASGYYFTSYDINWVRQAPGQGLEWMGWLNPNSGNTGYAQKFQGRVTMTADRSTSTAYMELSSLRSEDTAVYYCAREVPETAAFEYWGQGTLVTVSS
VL: QSVLTQPPSVSGAPGQRVTISCTSSSSDIGAGLGVHWYQQLPGTAPKLLIEGYYNRPSGVPDRFSGSKSGTSASLTITGLLPEDEGDYYCQSYDGTLSALFGGGTKLTVLG
notes: human IgG1, lambda
For B16, the “TL1A Binding Level (Early)” value in assay [1] was found to be 10 RU. Besides, the “TL1A Binding Level (Late)” value in assay [2] came out at 9 RU.

B17: 320-409 (antibody, human IgG1, name in Kabat numbering, V domains shown)
VH: QVQLVQSGAEVKKPGASVKVSCKASGYKFTSYDINWVRQAPGQGLEWMGWLNPNSGNTGYAQKFQGRVTMTADRSTSTAYMELSSLRSEDTAVYYCAREVPETAAFEYWGQGTLVTVSS
VL: QSVLTQPPSVSGAPGQRVTISCTSSSSDIGAGLGVHWYQQLPGTAPKLLIEGYYNRPSGVPDRFSGSKSGTSASLTITGLLPEDEGDYYCQSYDGTLSALFGGGTKLTVLG
notes: human IgG1, lambda
Regarding B17, the “TL1A Binding Level (Early)” value in assay [1] came out at 10 RU. In assay [2], the “TL1A Binding Level (Late)” value was found to be 10 RU.
